Experimental data reported in patent publication US7008780, “Chimeric DNA-binding proteins” (Massachusetts Institute of Technology).

Tests used:
[1] = molecular target: GST-ZFHD1 (Zif268 fingers 1-2, GGRR linker, Oct-1 homeodomain) (synthetic chimera (mouse Zif268 / human …, UniProt P08046;P14859 P08046:333-390,P14859:378-439)); experiment: EMSA; 10 mM Hepes pH 7.9, 50 mM KCl, 0.5 mM EDTA, 30 C; apparent Kd; details: tags: N-terminal GST (pGEX2T)
[2] = molecular target: Oct-1 POU domain (POU-specific domain and homeodomain) (UniProt P14859 P14859:280-438); experiment: as above
Oct-1 POU domain (POU-specific domain and homeodomain), sequence (P14859 280-438, one chain of several): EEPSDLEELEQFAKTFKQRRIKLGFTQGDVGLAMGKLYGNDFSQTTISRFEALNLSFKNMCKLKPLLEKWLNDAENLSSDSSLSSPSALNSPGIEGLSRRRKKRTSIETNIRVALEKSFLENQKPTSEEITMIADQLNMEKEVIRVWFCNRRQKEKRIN

Zif268 zinc fingers 1-3 [3] = molecular target: T1, Zif268 zinc fingers 1-3 (UniProt P08046 P08046:336-416); experiment: as above
Zif268 zinc fingers 1-3 [4] = molecular target: T1, Zif268 zinc fingers 1-3; experiment: EMSA

B1: hybrid site probe TAATGATGGGCG (dsDNA)
DNA 1: CCTCGAGGCGCCCATCATTACTAGGTACC
DNA 2: GGTACCTAGTAATGATGGGCGCCTCGAGG
Kd [1]: 0.84 nM

B2: Oct-1 octamer site probe (dsDNA)
DNA 1: CCTCGAGGTCATTTGCATACTAGGTACC
DNA 2: GGTACCTAGTATGCAAATGACCTCGAGG
Kd [2]: 0.18 nM

B3: Zif268 site probe (dsDNA)
DNA 1: CCTCGAGGCGCCCACGCCTAGGTACC
DNA 2: GGTACCTAGGCGTGGGCGCCTCGAGG
Kd (Zif268 zinc fingers 1-3 [3]): 0.33 nM

B4: hybrid site probe TCATTATGGGCG (dsDNA)
DNA 1: CCTCGAGGTCATTATGGGCGCTAGGTACC
DNA 2: GGTACCTAGCGCCCATAATGACCTCGAGG
binding result (Zif268 zinc fingers 1-3 [4]): no binding
